These results are taken from PMC3912326.

Where two headings read alike, the source gives them in different places.

Common to all, as to assay: fluorescence anisotropy
On the technique in general: Polarisation of emitted light reports the rotation of a fluorescent probe.

The target of data set [1] is T1, mouse transferrin receptor (mTfR) (Mus musculus, UniProt Q62351 89-763).
Data set [2] concerns the target human transferrin receptor (hTfR) (Homo sapiens, UniProt P02786 89-760).
For a further data set, the target named is transferrin (Tf) (UniProt P02787 20-698).
Data set [3] addresses T1, mouse transferrin receptor (mTfR). This is another data set of the same source.
Data set [4] has the same target. The source holds these as a separate data set.

T1 sequence (Q62351 89-763): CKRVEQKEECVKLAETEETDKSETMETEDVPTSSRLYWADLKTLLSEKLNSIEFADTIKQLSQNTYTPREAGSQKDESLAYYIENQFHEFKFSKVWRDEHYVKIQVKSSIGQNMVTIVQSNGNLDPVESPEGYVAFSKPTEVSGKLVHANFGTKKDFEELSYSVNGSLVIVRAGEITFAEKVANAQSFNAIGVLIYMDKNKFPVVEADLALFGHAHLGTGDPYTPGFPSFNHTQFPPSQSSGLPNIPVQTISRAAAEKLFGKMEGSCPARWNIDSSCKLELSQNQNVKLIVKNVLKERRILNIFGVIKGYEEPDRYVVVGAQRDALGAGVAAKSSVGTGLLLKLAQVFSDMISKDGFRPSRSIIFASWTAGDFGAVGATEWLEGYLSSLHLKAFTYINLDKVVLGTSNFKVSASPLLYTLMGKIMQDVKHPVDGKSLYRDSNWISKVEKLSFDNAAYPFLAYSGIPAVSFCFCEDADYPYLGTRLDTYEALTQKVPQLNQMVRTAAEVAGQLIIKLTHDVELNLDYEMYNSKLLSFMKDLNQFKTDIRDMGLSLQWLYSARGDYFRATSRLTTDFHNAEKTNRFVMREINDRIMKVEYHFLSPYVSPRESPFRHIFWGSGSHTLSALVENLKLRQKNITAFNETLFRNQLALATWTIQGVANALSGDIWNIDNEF
Sequence of human transferrin receptor (hTfR) (P02786 89-760): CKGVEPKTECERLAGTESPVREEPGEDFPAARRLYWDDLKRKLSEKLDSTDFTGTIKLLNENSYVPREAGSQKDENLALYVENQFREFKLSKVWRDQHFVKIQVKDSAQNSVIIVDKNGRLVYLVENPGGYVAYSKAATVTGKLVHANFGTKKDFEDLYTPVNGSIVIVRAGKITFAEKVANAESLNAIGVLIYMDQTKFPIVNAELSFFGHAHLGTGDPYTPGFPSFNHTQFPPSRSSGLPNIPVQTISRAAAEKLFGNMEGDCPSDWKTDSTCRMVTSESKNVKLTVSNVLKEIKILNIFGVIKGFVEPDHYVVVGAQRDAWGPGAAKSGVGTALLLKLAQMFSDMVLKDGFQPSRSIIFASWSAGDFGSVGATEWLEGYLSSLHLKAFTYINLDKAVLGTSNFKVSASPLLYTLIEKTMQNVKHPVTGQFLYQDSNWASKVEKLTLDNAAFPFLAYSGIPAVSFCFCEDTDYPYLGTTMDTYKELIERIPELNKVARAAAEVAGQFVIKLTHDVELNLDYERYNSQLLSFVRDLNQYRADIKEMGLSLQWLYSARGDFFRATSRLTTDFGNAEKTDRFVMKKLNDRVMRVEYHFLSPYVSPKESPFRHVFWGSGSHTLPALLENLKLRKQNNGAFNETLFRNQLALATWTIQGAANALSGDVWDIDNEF
Sequence of transferrin (Tf) (P02787 20-698): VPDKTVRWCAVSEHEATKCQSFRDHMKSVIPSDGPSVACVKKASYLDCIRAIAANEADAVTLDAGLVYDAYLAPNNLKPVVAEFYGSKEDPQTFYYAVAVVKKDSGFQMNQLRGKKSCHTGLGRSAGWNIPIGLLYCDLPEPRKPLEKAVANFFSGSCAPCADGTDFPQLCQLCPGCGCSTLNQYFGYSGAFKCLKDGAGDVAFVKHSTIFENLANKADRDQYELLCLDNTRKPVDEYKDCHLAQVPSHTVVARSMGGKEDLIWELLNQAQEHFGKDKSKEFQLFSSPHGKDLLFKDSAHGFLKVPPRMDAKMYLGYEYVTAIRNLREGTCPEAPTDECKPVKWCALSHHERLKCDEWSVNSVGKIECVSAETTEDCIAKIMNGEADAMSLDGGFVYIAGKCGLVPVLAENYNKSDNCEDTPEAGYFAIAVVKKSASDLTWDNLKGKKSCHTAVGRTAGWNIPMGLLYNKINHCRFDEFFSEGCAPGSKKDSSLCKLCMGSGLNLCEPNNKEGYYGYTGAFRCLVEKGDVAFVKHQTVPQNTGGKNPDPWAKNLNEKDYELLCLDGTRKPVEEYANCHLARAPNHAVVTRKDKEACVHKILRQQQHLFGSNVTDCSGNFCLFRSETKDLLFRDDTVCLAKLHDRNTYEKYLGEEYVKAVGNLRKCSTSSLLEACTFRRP

B1: GS24 (equilibrium mixture A-1F:A-2F 20:80) (structured_DNA)
DNA: GCGTGTGCACACGGTCACTTAGTATCGCTACGTTCTTTGGTTCCGTTCGG
modifications: 5' amino C6 linker
What is called Kd is a measure of binding affinity in units of concentration. On to B1, for which the Kd in data set [1] worked out at 250 ± 40 nM; in data set [2], 1000 ± 250 nM. The binding result in the data set with transferrin (Tf) is reported as “no binding”.

B2: GS24 fold A-2F (purified active fold) (structured_DNA)
DNA: GCGTGTGCACACGGTCACTTAGTATCGCTACGTTCTTTGGTTCCGTTCGG
modifications: 5' amino C6 linker
B2 yielded a dissociation constant (Kd) in data set [3] of 130 ± 30 nM.

B3: GS24min (structured_DNA)
DNA: CACTTAGTATCGCTACGTTCTTTGGTTCCGTTCGG
modifications: 5' amino C6 linker
The molecule B3 displayed a Kd in data set [4] of 1200 ± 390 nM.
